Measured values as given in IntAct's records for PubMed 28360110.

B1: Solute carrier family 26 member 9 (Homo sapiens), Q7LBE3-1 (parent)
chain: MSQPRPRYVVDRAAYSLTLFDDEFEKKDRTYPVGEKLRNAFRCSSAKIKAVVFGLLPVLSWLPKYKIKDYIIPDLLGGLSGGSIQVPQGMAFALLANLPAVNGLYSSFFPLLTYFFLGGVHQMVPGTFAVISILVGNICLQLAPESKFQVFNNATNESYVDTAAMEAERLHVSATLACLTAIIQMGLGFMQFGFVAIYLSESFIRGFMTAAGLQILISVLKYIFGLTIPSYTGPGSIVFTFIDICKNLPHTNIASLIFALISGAFLVLVKELNARYMHKIRFPIPTEMIVVVVATAISGGCKMPKKYHMQIVGEIQRGFPTPVSPVVSQWKDMIGTAFSLAIVSYVINLAMGRTLANKHGYDVDSNQEMIALGCSNFFGSFFKIHVICCALSVTLAVDGAGGKSQVASLCVSLVVMITMLVLGIYLYPLPKSVLGALIAVNLKNSLKQLTDPYYLWRKSKLDCCIWVVSFLSSFFLSLPYGVAVGVAFSVLVVVFQTQFRNGYALAQVMDTDIYVNPKTYNRAQDIQGIKIITYCSPLYFANSEIFRQKVIAKTGMDPQKVLLAKQKYLKKQEKRRMRPTQQRRSLFMKTKTVSLQELQQDFENAPPTDPNNNQTPANGTSVSYITFSPDSSSPAQSEPPASAEAPGEPSDMLASVPPFVTFHTLILDMSGVSFVDLMGIKALAKLSSTYGKIGVKVFLVNIHAQVYNDISHGGVFEDGSLECKHVFPSIHDAVLFAQANARDVTPGHNFQGAPGDAELSLYDSEEDIRSYWDLEQEMFGSMFHAETLTAL

Variants of: B1
Conditions: with gopc_human GOPC

Row | effect of a mutation on the interaction | Variant
1 | decreasing interaction strength | T789A
